Data taken from publication PMC3423979 (Nature chemical biology, 2012).
Values belong to the molecule of their own block, whether it stands above or below them. Where no end group is shown, it is not given here. [ ]: non-standard residue; d: D form. pY = N[C@@H](Cc1ccc(OP(=O)(O)O)cc1)C(=O)O

Experiments:
[1] = target: CrkL SH2 (residues 1–105) (human) (UniProt P46109); test: ITC
[2] = target: full-length CrkL (residues 1–303) (human) (UniProt P46109); test: ITC
[3] = target: full-length CrkL (residues 1–303) (human, UniProt P46109 1-303); test: NMR titration
[4] = target: CrkL SH3^N (residues 120–188) (human, UniProt P46109 120-188); test: ITC
[5] = target: phosphorylated (pTyr207) CrkL (human, UniProt P46109 1-303, phosphotyrosine at 207 (pTyr207)); test: ITC
[6] = target: CrkL SH2 (residues 1–105) (human, UniProt P46109 1-105); test: ITC
CrkL SH2 (residues 1–105), sequence (P46109 1-105): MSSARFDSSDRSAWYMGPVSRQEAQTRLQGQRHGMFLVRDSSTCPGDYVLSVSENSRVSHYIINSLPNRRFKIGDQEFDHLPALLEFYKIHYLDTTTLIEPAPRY

CrkL SH3^N (residues 120–188), sequence (P46109 120-188): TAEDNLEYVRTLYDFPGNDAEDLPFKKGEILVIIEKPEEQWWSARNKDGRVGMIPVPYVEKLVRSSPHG
CrkL SH2 (residues 1–105) (human), sequence (P46109 1-105): as the sequence (P46109 1-105) above
full-length CrkL (residues 1–303), sequence (P46109 whole entry, the tested form may be a part): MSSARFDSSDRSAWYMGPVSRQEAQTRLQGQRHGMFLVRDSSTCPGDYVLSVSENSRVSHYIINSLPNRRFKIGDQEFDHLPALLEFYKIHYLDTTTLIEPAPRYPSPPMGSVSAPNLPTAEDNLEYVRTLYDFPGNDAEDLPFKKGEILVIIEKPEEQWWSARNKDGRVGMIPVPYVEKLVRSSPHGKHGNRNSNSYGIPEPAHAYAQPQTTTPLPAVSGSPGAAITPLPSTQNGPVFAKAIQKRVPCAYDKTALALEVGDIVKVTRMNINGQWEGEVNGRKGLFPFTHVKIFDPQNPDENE
phosphorylated (pTyr207) CrkL, sequence (P46109 whole entry, the tested form may be a part): as above
full-length CrkL (residues 1–303) (human), sequence (P46109 whole entry, the tested form may be a part): as above

Kd [1]: 7 µM
Kd [2]: 23 µM
Molecule: CrkL-pTyr207-peptide

binding result [3]: binds
binding result [4]: binds
binding result [5]: binds
Molecule: YLQAPELPTKTRTS [PPII-peptide]

binding result [6]: binds
Molecule: AGVSE[pY]ELPEDPR [FGFR-pTyr-peptide]
